Experimental data from the supplement of paper PMC12764529.
± gives the half width of the 95% confidence interval.

Columns and labels:
[1] = folding stability dG unfold from trypsin proteolysis; higher = more stable
Method: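 Folding stability of de novo designed mini-proteins (<80 aa, no Cys; designed by TrROS, TrMRF, ProteinMPNN and the joint model) was measured by cDNA display proteolysis with trypsin and chymotrypsin. Each protease was used at 11 concentrations in a threefold dilution series plus a no-protease condition. K50 was inferred by Bayesian fitting of sequencing counts, and dG unfold was derived against a sequence-predicted unfolded-state K50 (Tsuboyama et al. method). Sequences shown include variable-length N-terminal GS-type padding (SAGGSAGG...) inside a display construct carrying a PA tag. Rows were kept only if the AF2 dimer inter-PAE was >15, to exclude likely homo-oligomers.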

[2] = folding stability dG unfold (combined trypsin and chymotrypsin); higher = more stable
Method in brief: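 Unfolding free energy was derived, per protease or combined, against a sequence-predicted unfolded-state K50 and a shared folded-state K50, starting from K50 inferred by Bayesian fitting of sequencing counts. Digestion with trypsin and chymotrypsin was carried out on designed mini-proteins under 80 residues without cysteine in a PA-tagged cDNA display construct. Only designs with AlphaFold2 dimer inter-PAE above 15 were kept.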

| Sequence | folding stability dG unfold [1] [kcal/mol] | folding stability dG unfold [2] [kcal/mol] |
| --- | --- | --- |
| SAGGSAGGSAGGMTETLDFNGEKVVVTELPPTNTYQVTTTTPGTGVPTTTAARKEEVLTSAGGSAGGSAGGS [r10_482_JUSTAS] | 0.443 ± 0.045 | -0.177 ± 0.28 |
| SAGGSAGGSAGGMTITLEFTTEEEVEAYAKEIGATKVEVTREKTETPEERIKATIEKPGSAGGSAGGSAGGS [r10_494_JUSTAS] | -0.365 ± 0.74 | < -1 |
| SAGGSAGGSAGGMVVTVKVGDETIEIDTETGTATVTPPATGTTTTVPASEVEPITPELLSAGGSAGGSAGGS [r10_709_JUSTAS] | 0.945 ± 0.076 | 0.123 ± 0.065 |
| SAGGSAGGSAGGMYVIKITMGDRPRSIMVPPDNPEEIKNQLRDLGYNIKEISVERFPPGSAGGSAGGSAGGS [r10_405_TrROS] | -0.749 ± 0.61 | -0.787 ± 0.56 |
| SAGGSAGGSAGGPKTVTISGGPLEDLLEKLDNMPPDDTITIHHPGGYYTVKVENDKIKIVSAGGSAGGSAGG [r7_560_TrROS] | -0.416 ± 0.13 | -0.69 ± 0.22 |
| SAGGSAGGSAGGPPEITVEHHPPNGYMTLTIPDGRPIEIPMPPNRPPSDVKNRAKDLIKSAGGSAGGSAGGS [r10_33_TrROS] | -0.457 ± 0.39 | < -1 |
| SAGGSAGGSAGGRMYPITFPGKTIEDIEEEIEELPPNYQINIDHDENGHMKVWIMPPDDFSAGGSAGGSAGG [r7_662_TrROS] | -0.422 ± 0.33 | < -1 |
| SAGGSAGGSAGGRTIHINGATPERIIKWLKEWPPDEPVEIHYHGPNNKHREIPIDELKKSAGGSAGGSAGGS [r10_732_TrROS] | -0.0271 ± 0.1 | -0.669 ± 0.38 |
| SAGGSAGGSAGGSALDPSAKVTVDRGDGKLVAVHVYPPGGKPVVILLPEEDAKKILEEVSAGGSAGGSAGGS [r4_16_TrMRF] | 0.416 ± 0.031 | -0.726 ± 0.44 |
| SAGGSAGGSAGGSALDRPVPVLVTGSIPLDGKFEDALGAAKAIEEEFAPYGYIVLSDVHVSAGGSAGGSAGG [r17_197_TrMRF] | 0.297 ± 0.048 | -0.0552 ± 0.12 |
| SAGGSAGGSAGGSATVINIPASSLSEEEIEALAKALEEEDPSIKGPKIEKGDGTYTIVQSAGGSAGGSAGGS [r4_330_JUSTAS] | 0.553 ± 0.046 | -0.533 ± 0.23 |
| SAGGSAGGSAGGSDELLKELAQENGMKVTAEPMPEEGHFNIEVQSPNGKPIEIEIPLDDSAGGSAGGSAGGS [r4_121_TrROS] | 0.128 ± 0.15 | -0.0556 ± 0.26 |
| SAGGSAGGSAGGSGAEEAAKAVREAFPELGVPILVEVGYIPGTKELPVRVYIPSTRLELSAGGSAGGSAGGS [r4_312_TrMRF] | -0.294 ± 0.055 | < -1 |
| SAGGSAGGSAGGSGMPQPTTVLTTEYYPPGVVVKKDIVYSPSGGAEEVEVSFYPSPELLSAGGSAGGSAGGS [r4_57_JUSTAS] | -1.08 ± 0.2 | < -1 |
| SAGGSAGGSAGGSGNFDKDGNKLTVYYPNTKKPVTIDFPVEDIFEFIKNLPPNVAKVDASAGGSAGGSAGGS [r4_282_TrMRF] | -0.201 ± 0.049 | -0.869 ± 0.4 |
| SAGGSAGGSAGGSGSMVVEKVSPEPNVTKTIFFEPPEEGLVITVETLEGDTWSSQIILQSAGGSAGGSAGGS [r4_484_JUSTAS] | 0.657 ± 0.097 | -0.0129 ± 0.3 |
| SAGGSAGGSAGGSIEIDVNPEAGQLKIEIEMPMPNPNGKPRGPMRMEQEFRIDDPEDIKSAGGSAGGSAGGS [r4_10_TrROS] | -0.641 ± 0.33 | < -1 |
| SAGGSAGGSAGGSMAVPQTVEVEAGAKPILVTTYRLPPDGAVVRIEYPGPAVVLEEELESAGGSAGGSAGGS [r10_630_JUSTAS] | -0.445 ± 0.2 | < -1 |
| SAGGSAGGSAGGSMIVDTKVPENSVAYTPDGKKIGPEEVKKALEEGLGYIGSTPVPPGLSAGGSAGGSAGGS [r4_47_JUSTAS] | 0.127 ± 0.029 | -0.835 ± 0.31 |
| SAGGSAGGSAGGSMKVEPLPHPDRPVTVETTPDSITVTDPANPPATTTFSSSSTVSVDSSAGGSAGGSAGGS [r4_321_JUSTAS] | -0.122 ± 0.078 | -0.505 ± 0.44 |
| SAGGSAGGSAGGSMPKPKVIKVPVDPNVSKEEVAKEVLPKTGLNVESIEESEDVLYVLNSAGGSAGGSAGGS [r4_469_JUSTAS] | -1.11 ± 0.38 | < -1 |
| SAGGSAGGSAGGSNIILIPAKPGEEFKIKINGRPLKIQRDKDKPGYIMIEFPDGQWQPISAGGSAGGSAGGS [r4_488_TrROS] | -0.041 ± 0.2 | -0.174 ± 0.24 |
| SAGGSAGGSAGGSPEVVPVDHPDRELLLVRFPDSVVLTDPSAPGASRTFPADTDVVVDASAGGSAGGSAGGS [r4_321_TrMRF] | -1.37 ± 0.41 | < -1 |
| SAGGSAGGSAGGSSLSTVAPSPSGRLYVELDIDEPVVSPTPIPTGTGPVSGIIVSPVLLSAGGSAGGSAGGS [r10_92_JUSTAS] | -0.989 ± 0.31 | < -1 |

| Sequence | folding stability dG unfold [1] [kcal/mol] | folding stability dG unfold [2] [kcal/mol] |
| --- | --- | --- |
| SAGGSAGGSAGGSSTITIGDSEVSVTADPKAPVATASYPASGVTFTITRPDASVTITPTPSAGGSAGGSAGG [r7_156_JUSTAS] | -0.783 ± 0.42 | < -1 |
| SAGGSAGGSAGGTAKELVNEIAKEFMQDHPNQEIPIEVEVRTNGKPVKAEIPIRLPPGQSAGGSAGGSAGGS [r10_1204_TrROS] | -0.402 ± 0.07 | < -1 |
| SAGGSAGGSAGGWVFDSDDYPKFQDAAKDHGLKPKSINDDDNTMTVDPEDPNRIRDAINESAGGSAGGSAGG [r7_285_TrROS] | -0.147 ± 0.21 | < -1 |
| SAGGSAGGSAGKITIRNPENGYAIKIKFGDKEKTIPIDPDQIDEFLEKLPGIKVEPYPWKSAGGSAGGSAGG [r11_57_TrROS] | -0.574 ± 0.2 | -0.899 ± 0.59 |
| SAGGSAGGSAGMEDLVTVTETVETTDTLRDEGGTPTGTTTTTTTVTKLLSPEKVAALKEASAGGSAGGSAGG [r11_620_JUSTAS] | -0.116 ± 0.021 | -0.85 ± 0.23 |
| SAGGSAGGSAGMKIVAPSKEEAEKIAKELAKELGLPDEIKDLEIEVIPLKPTPDGGFIPYSAGGSAGGSAGG [r17_237_TrMRF] | -0.168 ± 0.17 | -0.715 ± 0.22 |
| SAGGSAGGSAGMKTYTVPLPGGDPALIEQTAQDIVEKIPGLEDHEVKVDAGDDGTLTIVESAGGSAGGSAGG [r17_324_JUSTAS] | -0.736 ± 0.16 | < -1 |
| SAGGSAGGSAGMKVVLTVPESEAAKPEVLEAKAQEIKEKHPGEEVEVEFITNPFPPGTPLSAGGSAGGSAGG [r11_743_JUSTAS] | 0.456 ± 0.019 | -0.108 ± 0.1 |
| SAGGSAGGSAGMTLEEKLKEAEEKHKKEGGPATITITDPTATGVSKTYTVTIENEGLKVESAGGSAGGSAGG [r11_954_JUSTAS] | 0.034 ± 0.055 | -0.132 ± 0.36 |
| SAGGSAGGSAGPKPEYIRIKIEMWNPDGNPREHDFTFPPGHKDQIENLADNYGFRVSIEKSAGGSAGGSAGG [r11_603_TrROS] | 0.278 ± 0.13 | -0.281 ± 0.29 |
| SAGGSAGGSAGPKPIEFEDPDNGRKIEYWPEENQISIENPGDGKEKEYPMDSPEELKEWMSAGGSAGGSAGG [r11_936_TrROS] | 0.117 ± 0.17 | < -1 |
| SAGGSAGGSAGPMIKIGSTTRPFTPPLGGRLEYAPIDVDQSEEVAKEVAEELKPKGVIVNLSAGGSAGGSAG [r3_157_JUSTAS] | -0.774 ± 0.35 | < -1 |
| SAGGSAGGSAGPPIYWRIEFENPGKKHTMTIPRDMPVDDIKEIADEIAKRFPMPISIEPVSAGGSAGGSAGG [r11_515_TrROS] | -0.335 ± 0.22 | -0.565 ± 0.25 |
| SAGGSAGGSAGPPVLVSINPDENATVEVRTRPDGKPVLLFTVPKTGEVLVVHPDGKIDNSSAGGSAGGSAGG [r11_601_TrMRF] | -0.0916 ± 0.17 | -0.246 ± 0.35 |
| SAGGSAGGSAGSKTITFIMVHPDDGYISDMEMRYTDNGIEMEMEWIPVPKEDAEELKDLISAGGSAGGSAGG [r11_47_TrROS] | 0.225 ± 0.036 | -0.044 ± 0.19 |
| SAGGSAGGSAGTSTTVTEKPDPNSNRTYTTTTVERTTADGTTTTVTTTVYPDSTTSTTTASAGGSAGGSAGG [r11_987_JUSTAS] | 0.557 ± 0.094 | 0.0978 ± 0.2 |
| SAGGSAGGSAHTIEDPDNNKKIEVHPPPNGNYMVEIERPDNGEKKTIMMPPDDVEEALNQISAGGSAGGSAG [r3_162_TrROS] | -0.139 ± 0.2 | < -1 |
| SAGGSAGGSAKEVEVEVEEELPGGYYRATVRLPGEEKPLEVVVKGPREDALKAAEELAKEESAGGSAGGSAG [r3_104_TrMRF] | -0.0768 ± 0.16 | < -1 |
| SAGGSAGGSAKITITAPPGETYRIKVKVKNENGEWKEVTRTIKVGEPLEDIEEVEIERIEPESAGGSAGGSA [r18_223_TrROS_Hall] | 0.0462 ± 0.12 | -0.146 ± 0.27 |
| SAGGSAGGSAMIVVTLDDPEEAREAVRARFGPEVEITPLETTTVGDRVFTKIAVRVPPELASAGGSAGGSAG [r3_87_JUSTAS] | -0.351 ± 0.19 | -0.395 ± 0.24 |
| SAGGSAGGSAMLKVTVKVPGTSKDYDFNVPESVGKEEAEKRLEEEYPGAEVTEIVEIPGEELSAGGSAGGSA [r18_242_JUSTAS] | 0.545 ± 0.027 | -0.469 ± 0.26 |
| SAGGSAGGSAMPIPALVLVERPLPDGETEEREIPVIVEPDKIDEIIEEAEKEGYKVKEVKASAGGSAGGSAG [r3_453_TrMRF] | -0.271 ± 0.06 | < -1 |
| SAGGSAGGSAMRVVEITVPPENPEELKREIAEAFPFEVEGEEVGDGSVTLRFILPEDVELGSAGGSAGGSAG [r3_457_TrMRF] | 0.142 ± 0.097 | -0.212 ± 0.13 |
